# Assay results published in the supplement of paper PMC11316812.
# ± gives the standard deviation of the averaged measurements.
# Experiments:
# [1] = test system: MCF7; assay: percentage of EdU-negative (G0-arrested) nuclei per well, 72 h; higher = more G0 arrest; conditions: reference: sequence is the full UniProt precursor, the tested protein was the secreted form or ectodomain
# [2] = test system: hTERT-HMEC; assay: as above; conditions: reference: sequence is the full UniProt precursor, the tested protein was the secreted form or ectodomain
# [3] = protein concentration 0.00725 µM
# [4] = protein concentration 0.0725 µM
# [5] = protein concentration 0.03125 µM
# [6] = protein concentration 0.3125 µM
# [7] = protein concentration 0.0161125 µM
# [8] = protein concentration 0.161125 µM
# [9] = protein concentration 0.01725 µM
# [10] = protein concentration 0.1725 µM
# [11] = protein concentration 0.0225 µM
# [12] = protein concentration 0.0357143 µM
# [13] = protein concentration 0.357143 µM
# 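Also: secreted proteins added to cultured cells, EdU pulse at the end, nuclei found by Hoechst imaging, EdU status from nuclear versus surrounding ring intensity ratio, PBS as neutral control.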
sequence,measurement,setting,value
MRPPGFRNFLLLASSLLFAGLSAVPQSFSPSLRSWPGAACRLSRAESERRCRAPGQPPGAALCHGRGRCDCGVCICHVTEPGMFFGPLCECHEWVCETYDGSTCAGHGKCDCGKCKCDQGWYGDACQYPTNCDLTKKKSNQMCKNSQDIICSNAGTCHCGRCKCDNSDGSGLVYGKFCECDDRECIDDETEEICGGHGKCYCGNCYCKAGWHGDKCEFQCDITPWESKRRCTSPDGKICSNRGTCVCGECTCHDVDPTGDWGDIHGDTCECDERDCRAVYDRYSDDFCSGHGQCNCGRCDCKAGWYGKKCEHPQSCTLSAEESIRKCQGSSDLPCSGRGKCECGKCTCYPPGDRRVYGKTCECDDRRCEDLDGVVCGGHGTCSCGRCVCERGWFGKLCQHPRKCNMTEEQSKNLCESADGILCSGKGSCHCGKCICSAEEWYISGEFCDCDDRDCDKHDGLICTGNGICSCGNCECWDGWNGNACEIWLGSEYP,percentage of EdU-negative,[1]; [3],26.1 ± 1.1%
same,percentage of EdU-negative,[1]; [4],24.7 ± 1.8%
same,percentage of EdU-negative,[2]; [3],4.34 ± 0.65%
same,percentage of EdU-negative,[2]; [4],6.33 ± 0.52%
MHYCVLSAFLILHLVTVALSLSTCSTLDMDQFMRKRIEAIRGQILSKLKLTSPPEDYPEPEEVPPEVISIYNSTRDLLQEKASRRAAACERERSDEEYYAKEVYKIDMPPFFPSENAIPPTFYRPYFRIVRFDVSAMEKNASNLVKAEFRVFRLQNPKARVPEQRIELYQILKSKDLTSPTQRYIDSKVVKTRAEGEWLSFDVTDAVHEWLHHKDRNLGFKISLHCPCCTFVPSNNYIIPNKSEELEARFAGIDGTSTYTSGDQKTIKSTRKKNSGKTPHLLLMLLPSYRLESQQTNRRKKRALDAAYCFRNVQDNCCLRPLYIDFKRDLGWKWIHEPKGYNANFCAGACPYLWSSDTQHSRVLSLYNTINPEASASPCCVSQDLEPLTILYYIGKTPKIEQLSNMIVKSCKCS,percentage of EdU-negative,[1]; [5],30.8 ± 2.4%
same,percentage of EdU-negative,[1]; [6],40.6 ± 2.4%
same,percentage of EdU-negative,[2]; [5],4.63 ± 1.4%
same,percentage of EdU-negative,[2]; [6],15.8 ± 4.9%
MQAQQYQQQRRKFAAAFLAFIFILAAVDTAEAGKKEKPEKKVKKSDCGEWQWSVCVPTSGDCGLGTREGTRTGAECKQTMKTQRCKIPCNWKKQFGAECKYQFQAWGECDLNTALKTRTGSLKRALHNAECQKTVTISKPCGKLTKPKPQAESKKKKKEGKKQEKMLD,percentage of EdU-negative,[1]; [7],25.8 ± 1.2%
same,percentage of EdU-negative,[1]; [8],30.5 ± 1.6%
same,percentage of EdU-negative,[2]; [7],4.79 ± 0.99%
same,percentage of EdU-negative,[2]; [8],5.12 ± 0.3%
MGAASGRRGPGLLLPLPLLLLLPPQPALALDPGLQPGNFSADEAGAQLFAQSYNSSAEQVLFQSVAASWAHDTNITAENARRQEEAALLSQEFAEAWGQKAKELYEPIWQNFTDPQLRRIIGAVRTLGSANLPLAKRQQYNALLSNMSRIYSTAKVCLPNKTATCWSLDPDLTNILASSRSYAMLLFAWEGWHNAAGIPLKPLYEDFTALSNEAYKQDGFTDTGAYWRSWYNSPTFEDDLEHLYQQLEPLYLNLHAFVRRALHRRYGDRYINLRGPIPAHLLGDMWAQSWENIYDMVVPFPDKPNLDVTSTMLQQGWNATHMFRVAEEFFTSLELSPMPPEFWEGSMLEKPADGREVVCHASAWDFYNRKDFRIKQCTRVTMDQLSTVHHEMGHIQYYLQYKDLPVSLRRGANPGFHEAIGDVLALSVSTPEHLHKIGLLDRVTNDTESDINYLLKMALEKIAFLPFGYLVDQWRWGVFSGRTPPSRYNFDWWYLRTKYQGICPPVTRNETHFDAGAKFHVPNVTPYIRYFVSFVLQFQFHEALCKEAGYEGPLHQCDIYRSTKAGAKLRKVLQAGSSRPWQEVLKDMVGLDALDAQPLLKYFQPVTQWLQEQNQQNGEVLGWPEYQWHPPLPDNYPEGIDLVTDEAEASKFVEEYDRTSQVVWNEYAEANWNYNTNITTETSKILLQKNMQIANHTLKYGTQARKFDVNQLQNTTIKRIIKKVQDLERAALPAQELEEYNKILLDMETTYSVATVCHPNGSCLQLEPDLTNVMATSRKYEDLLWAWEGWRDKAGRAILQFYPKYVELINQAARLNGYVDAGDSWRSMYETPSLEQDLERLFQELQPLYLNLHAYVRRALHRHYGAQHINLEGPIPAHLLGNMWAQTWSNIYDLVVPFPSAPSMDTTEAMLKQGWTPRRMFKEADDFFTSLGLLPVPPEFWNKSMLEKPTDGREVVCHASAWDFYNGKDFRIKQCTTVNLEDLVVAHHEMGHIQYFMQYKDLPVALREGANPGFHEAIGDVLALSVSTPKHLHSLNLLSSEGGSDEHDINFLMKMALDKIAFIPFSYLVDQWRWRVFDGSITKENYNQEWWSLRLKYQGLCPPVPRTQGDFDPGAKFHIPSSVPYIRYFVSFIIQFQFHEALCQAAGHTGPLHKCDIYQSKEAGQRLATAMKLGFSRPWPEAMQLITGQPNMSASAMLSYFKPLLDWLRTENELHGEKLGWPQYNWTPNSARSEGPLPDSGRVSFLGLDLDAQQARVGQWLLLFLGIALLVATLGLSQRLFSIRHRSLHRHSHGPQFGSEVELRHS,percentage of EdU-negative,[1]; [9],27.2 ± 0.68%
same,percentage of EdU-negative,[1]; [10],28.2 ± 4.2%
same,percentage of EdU-negative,[2]; [9],4.7 ± 0.63%
same,percentage of EdU-negative,[2]; [10],5.68 ± 0.65%
MNLAISIALLLTVLQVSRGQKVTSLTACLVDQSLRLDCRHENTSSSPIQYEFSLTRETKKHVLFGTVGVPEHTYRSRTNFTSKYNMKVLYLSAFTSKDEGTYTCALHHSGHSPPISSQNVTVLRDKLVKCEGISLLAQNTSWLLLLLLSLSLLQATDFMSL,percentage of EdU-negative,[1]; [11],27.7 ± 0.2%
same,percentage of EdU-negative,[1]; protein concentration 0.225 µM,26.6 ± 1.3%
same,percentage of EdU-negative,[2]; [11],4.527 ± 0.039%
same,percentage of EdU-negative,[2]; protein concentration 0.225 µM,6.24 ± 0.86%
MKLKLKNVFLAYFLVSIAGLLYALVQLGQPCDCLPPLRAAAEQLRQKDLRISQLQAELRRPPPAPAQPPEPEALPTIYVVTPTYARLVQKAELVRLSQTLSLVPRLHWLLVEDAEGPTPLVSGLLAASGLLFTHLVVLTPKAQRLREGEPGWVHPRGVEQRNKALDWLRGRGGAVGGEKDPPPPGTQGVVYFADDDNTYSRELFEEMRWTRGVSVWPVGLVGGLRFEGPQVQDGRVVGFHTAWEPSRPFPVDMAGFAVALPLLLDKPNAQFDSTAPRGHLESSLLSHLVDPKDLEPRAANCTRVLVWHTRTEKPKMKQEEQLQRQGRGSDPAIEV,percentage of EdU-negative,[1]; [11],24 ± 0.88%
same,percentage of EdU-negative,[1]; protein concentration 0.225 µM,27.1 ± 1.6%
same,percentage of EdU-negative,[2]; [11],6.2 ± 0.23%
same,percentage of EdU-negative,[2]; protein concentration 0.225 µM,9.73 ± 0.47%
MGHLSAPLHRVRVPWQGLLLTASLLTFWNPPTTAQLTTESMPFNVAEGKEVLLLVHNLPQQLFGYSWYKGERVDGNRQIVGYAIGTQQATPGPANSGRETIYPNASLLIQNVTQNDTGFYTLQVIKSDLVNEEATGQFHVYPELPKPSISSNNSNPVEDKDAVAFTCEPETQDTTYLWWINNQSLPVSPRLQLSNGNRTLTLLSVTRNDTGPYECEIQNPVSANRSDPVTLNVTYGPDTPTISPSDTYYRPGANLSLSCYAASNPPAQYSWLINGTFQQSTQELFIPNITVNNSGSYTCHANNSVTGCNRTTVKTIIVTELSPVVAKPQIKASKTTVTGDKDSVNLTCSTNDTGISIRWFFKNQSLPSSERMKLSQGNTTLSINPVKREDAGTYWCEVFNPISKNQSDPIMLNVNYNALPQENGLSPGAIAGIVIGVVALVALIAVALACFLHFGKTGRASDQRDLTEHKPSVSNHTQDHSNDPPNKMNEVTYSTLNFEAQQPTQPTSASPSLTATEIIYSEVKKQ,percentage of EdU-negative,[1]; [11],24.7 ± 1.3%
same,percentage of EdU-negative,[1]; protein concentration 0.225 µM,26.6 ± 0.95%
same,percentage of EdU-negative,[2]; [11],5.04 ± 1.4%
same,percentage of EdU-negative,[2]; protein concentration 0.225 µM,7.07 ± 0.44%
MLGIWTLLPLVLTSVARLSSKSVNAQVTDINSKGLELRKTVTTVETQNLEGLHHDGQFCHKPCPPGERKARDCTVNGDEPDCVPCQEGKEYTDKAHFSSKCRRCRLCDEGHGLEVEINCTRTQNTKCRCKPNFFCNSTVCEHCDPCTKCEHGIIKECTLTSNTKCKEEGSRSNLGWLCLLLLPIPLIVWVKRKEVQKTCRKHRKENQGSHESPTLNPETVAINLSDVDLSKYITTIAGVMTLSQVKGFVRKNGVNEAKIDEIKNDNVQDTAEQKVQLLRNWHQLHGKKEAYDTLIKDLKKANLCTLAEKIQTIILKDITSDSENSNFRNEIQSLV,percentage of EdU-negative,[1]; [12],23.4 ± 1.9%
same,percentage of EdU-negative,[1]; [13],26.6 ± 0.71%
same,percentage of EdU-negative,[2]; [12],5.07 ± 0.45%
same,percentage of EdU-negative,[2]; [13],5.88 ± 1.1%
MSPHLTALLGLVLCLAQTIHTQEGALPRPSISAEPGTVISPGSHVTFMCRGPVGVQTFRLEREDRAKYKDSYNVFRLGPSESEARFHIDSVSEGNAGLYRCLYYKPPGWSEHSDFLELLVKESSGGPDSPDTEPGSSAGTVPGTEASGFDAP [Q6ISS4],percentage of EdU-negative,[1]; [11],24.7 ± 0.63%
same,percentage of EdU-negative,[1]; protein concentration 0.225 µM,27.9 ± 3.5%
same,percentage of EdU-negative,[2]; [11],4.81 ± 0.34%
same,percentage of EdU-negative,[2]; protein concentration 0.225 µM,6.43 ± 0.35%
MMCGAPSATQPATAETQHIADQVRSQLEEKENKKFPVFKAVSFKSQVVAGTNYFIKVHVGDEDFVHLRVFQSLPHENKPLTLSNYQTNKAKHDELTYF,percentage of EdU-negative,[1]; [5],26 ± 3.3%
same,percentage of EdU-negative,[1]; [6],26.5 ± 2.9%
same,percentage of EdU-negative,[2]; [5],5.09 ± 0.59%
same,percentage of EdU-negative,[2]; [6],4.78 ± 0.35%
MTTQLPAYVAILLFYVSRASCQDTFTAAVYEHAAILPNATLTPVSREEALALMNRNLDILEGAITSAADQGAHIIVTPEDAIYGWNFNRDSLYPYLEDIPDPEVNWIPCNNRNRFGQTPVQERLSCLAKNNSIYVVANIGDKKPCDTSDPQCPPDGRYQYNTDVVFDSQGKLVARYHKQNLFMGENQFNVPKEPEIVTFNTTFGSFGIFTCFDILFHDPAVTLVKDFHVDTIVFPTAWMNVLPHLSAVEFHSAWAMGMRVNFLASNIHYPSKKMTGSGIYAPNSSRAFHYDMKTEEGKLLLSQLDSHPSHSAVVNWTSYASSIEALSSGNKEFKGTVFFDEFTFVKLTGVAGNYTVCQKDLCCHLSYKMSENIPNEVYALGAFDGLHTVEGRYYLQICTLLKCKTTNLNTCGDSAETASTRFEMFSLSGTFGTQYVFPEVLLSENQLAPGEFQVSTDGRLFSLKPTSGPVLTVTLFGRLYEKDWASNASSGLTAQARIIMLIVIAPIVCSLSW,percentage of EdU-negative,[1]; [11],26.6 ± 0.41%
same,percentage of EdU-negative,[1]; protein concentration 0.225 µM,26.3 ± 2.3%
same,percentage of EdU-negative,[2]; [11],5.11 ± 0.53%
same,percentage of EdU-negative,[2]; protein concentration 0.225 µM,4.83 ± 0.5%
